Test results: patent publication US20140213529A1

Biological target: CD22 (UniProt P20273)
Test: cell-based or functional assay

UniProt P20273, sequence (P20273 20-847 limits assumed): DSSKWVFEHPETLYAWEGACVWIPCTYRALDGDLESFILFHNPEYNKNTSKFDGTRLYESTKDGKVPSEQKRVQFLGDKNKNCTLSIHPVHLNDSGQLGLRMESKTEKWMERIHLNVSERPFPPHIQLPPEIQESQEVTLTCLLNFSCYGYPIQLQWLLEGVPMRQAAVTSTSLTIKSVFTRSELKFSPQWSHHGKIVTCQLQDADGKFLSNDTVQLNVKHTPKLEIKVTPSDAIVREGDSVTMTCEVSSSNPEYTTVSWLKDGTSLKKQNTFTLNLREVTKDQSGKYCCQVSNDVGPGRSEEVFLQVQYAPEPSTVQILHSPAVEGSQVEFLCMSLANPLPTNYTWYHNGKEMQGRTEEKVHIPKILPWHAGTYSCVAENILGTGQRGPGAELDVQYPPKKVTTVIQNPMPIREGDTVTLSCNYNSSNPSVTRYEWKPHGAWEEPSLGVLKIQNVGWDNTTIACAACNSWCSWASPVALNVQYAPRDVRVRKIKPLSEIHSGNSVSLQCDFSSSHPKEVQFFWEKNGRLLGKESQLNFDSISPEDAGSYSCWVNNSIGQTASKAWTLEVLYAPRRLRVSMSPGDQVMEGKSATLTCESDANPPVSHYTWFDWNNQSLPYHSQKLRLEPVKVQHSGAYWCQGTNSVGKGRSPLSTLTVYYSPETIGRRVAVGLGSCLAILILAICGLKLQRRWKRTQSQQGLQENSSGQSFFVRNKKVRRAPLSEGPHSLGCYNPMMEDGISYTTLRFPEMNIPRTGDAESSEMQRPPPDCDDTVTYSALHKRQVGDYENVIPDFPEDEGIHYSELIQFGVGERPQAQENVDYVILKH

## HA22-LR
  cytotoxicity IC50 (ng/ml) on CA46 cells: 0.11 ng/mL
  cytotoxicity IC50 (ng/ml) on Daudi cells: 0.18 ng/mL
  cytotoxicity IC50 (ng/ml) on Raji cells: 0.41 ng/mL
